Measured values published in US20190241648A1 (STATEN BIOTECHNOLOGY B V, published 2019).
Ends that are not written are not given here.

Key:
Assay in all cases: peptide microarray
[1] = target: T1, ApoC3 peptide … T44A (human, not fully specified (bridges); also: cyclic constrained)
T1 peptide: ARGWVADGFSSLK
Excerpt: (§1) Amino acids G41 and G46 were highly conserved; substitution of G41 by E, N or Q caused a decrease of spot intensities by ˜70% or higher, whereas exchange of G46 by N was hardly tolerated and resulting in 90% reduced spot intensities. […] Amino acid positions V43, D45 and K51 were also well conserved with a clear preference for the wild type amino acids and a certain tolerance particularly for conservative exchanges by Y, F and I (V43), A, E and K (D45) as well as by R (K51). […] Replacement of V43 by Y, however, increased spot intensity by two fold. Amino acid positions W42 and 48S were poorly conserved or even variable; both positions were susceptible for only a number of amino acid exchanges, and exchange by F, S and T (W42) or by E (S48) even caused a two- to three-fold increase of spot intensity. Amino acid positions A39 and R40 were variable.
(§2) Pre: staining of one of the ApoC3 peptide microarrays was done with the secondary antibody goat anti-human IgG (Fe) DyLight680 (1:5000) and control antibody mouse monoclonal anti-HA (12CA5) DyLight800 (1:2000) to investigate background interactions of the secondary antibody with the antigen-derived peptides that could interfere with the main assays. Subsequent incubation of other ApoC3 peptide microarrays with antibody samples was followed by staining with secondary and control antibodies as well as read-out at scanning intensities of 7/7 (red/green). The additional HA peptides framing the peptide arrays were stained as internal quality control to confirm the assay quality and the peptide microarray integrity.

[2] = target: T2, ApoC3 peptide … G46W (human, thioether (positions not given here); also: cyclic constrained)
T2 peptide: ARGWVTDWFSSLK
Excerpt: as §1, §2

[3] = target: T3, ApoC3 peptide … K51T (human, not fully specified; cyclic constrained)
T3 peptide: ARGWVTDGFSSLT
Excerpt: as §1, §2

[4] = target: T4, ApoC3 peptide … K51S (human, not fully specified; cyclic constrained)
T4 peptide: ARGWVTDGFSSLS
Excerpt: as §1, §2

[5] = target: T5, ApoC3 peptide … L50N (human, not fully specified; cyclic constrained)
T5 peptide: ARGWVTDGFSSNK
Excerpt: as §1, §2

[6] = target: T6, ApoC3 peptide … T44F (human, not fully specified (bridges); also: cyclic constrained)
T6 peptide: ARGWVFDGFSSLK
Excerpt: as §1, §2

[7] = target: T7, ApoC3 peptide … F47W (human, also: cyclic constrained)
T7 peptide: ARGWVTDGWSSLK
Excerpt: as §1, §2

[8] = target: T8, ApoC3 peptide … L50M (human, not fully specified; cyclic constrained)
T8 peptide: ARGWVTDGFSSMK
Excerpt: as §1, §2

[9] = target: T9, ApoC3 peptide … R40C (human, not fully specified (bridges); also: cyclic constrained)
T9 peptide: ACGWVTDGFSSLK
Excerpt: as §1, §2

[10] = target: T10, ApoC3 peptide … W42V (human, not fully specified (bridges); also: cyclic constrained)
T10 peptide: ARGVVTDGFSSLK
Excerpt: as §1, §2

[11] = target: T11, ApoC3 peptide … V43N (human, not fully specified; cyclic constrained)
T11 peptide: ARGWNTDGFSSLK
Excerpt: as §1, §2

[12] = target: ApoC3 peptide … S48T (human, cyclic constrained)
Excerpt: as §1, §2

[13] = target: T12, ApoC3 peptide … R40I (human, not fully specified (bridges); also: cyclic constrained)
T12 peptide: AIGWVTDGFSSLK
Excerpt: as §1, §2

[14] = target: ApoC3 peptide … S49F (human, cyclic constrained)
Excerpt: as §1, §2

[15] = target: T13, ApoC3 peptide … V43R (human, not fully specified (bridges); also: cyclic constrained)
T13 peptide: ARGWRTDGFSSLK
Excerpt: as §1, §2

[16] = target: T14, ApoC3 peptide … G46C (human, also: cyclic constrained)
T14 peptide: ARGWVTDCFSSLK
Excerpt: as §1, §2

[17] = target: T15, ApoC3 peptide … L50V (human, not fully specified (bridges); also: cyclic constrained)
T15 peptide: ARGWVTDGFSSVK
Excerpt: as §1, §2

[18] = target: T16, ApoC3 peptide … R40N (human, not fully specified (bridges); also: cyclic constrained)
T16 peptide: ANGWVTDGFSSLK
Excerpt: as §1, §2

[19] = target: T17, ApoC3 peptide … K51N (human, not fully specified; cyclic constrained)
T17 peptide: ARGWVTDGFSSLN
Excerpt: as §1, §2

[20] = target: T18, ApoC3 peptide … F47R (human, also: cyclic constrained)
T18 peptide: ARGWVTDGRSSLK
Excerpt: as §1, §2

[21] = target: T19, ApoC3 peptide … L50P (human, not fully specified (bridges); also: cyclic constrained)
T19 peptide: ARGWVTDGFSSPK
Excerpt: as §1, §2

[22] = target: T20, ApoC3 peptide … D45F (human, not fully specified (bridges); also: cyclic constrained)
T20 peptide: ARGWVTFGFSSLK
Excerpt: as §1, §2

[23] = target: T21, ApoC3 peptide … W42N (human, not fully specified (bridges); also: cyclic constrained)
T21 peptide: ARGNVTDGFSSLK
Excerpt: as §1, §2

[24] = target: T22, ApoC3 peptide … L50W (human, not fully specified (bridges); also: cyclic constrained)
T22 peptide: ARGWVTDGFSSWK
Excerpt: as §1, §2

[25] = target: T23, ApoC3 peptide … G41E (human, also: cyclic constrained)
T23 peptide: AREWVTDGFSSLK
Excerpt: as §1, §2

[26] = target: ApoC3 peptide … S48H (human, cyclic constrained)
Excerpt: as §1, §2

[27] = target: T24, ApoC3 peptide … R40W (human, thioether (positions not given here); also: cyclic constrained)
T24 peptide: AWGWVTDGFSSLK
Excerpt: as §1, §2

[28] = target: ApoC3 peptide … S49C (human, cyclic constrained)
Excerpt: as §1, §2

[29] = target: T25, ApoC3 peptide … S49P (human, cyclic constrained)
T25 peptide: ARGWVTDGFSPLK
Excerpt: as §1, §2

[30] = target: T26, ApoC3 peptide … A39H (human, cyclic constrained)
T26 peptide: HRGWVTDGFSSLK
Excerpt: as §1, §2

[31] = target: T27, ApoC3 peptide … W42E (human, not fully specified (bridges); also: cyclic constrained)
T27 peptide: ARGEVTDGFSSLK
Excerpt: as §1, §2

B1: anti-ApoC3 antibody 14C7 (antibody, V domains shown)
VH: QVQVQESGPGLVKPSQTLSLTCTVSGGSITTNSYYWSWIRQPPGKGLEWMGAIDYSGDTYYSPSLKSRTSISRDTSKNQFTLQLTSVTPEDTAVYYCVSRIPTGEYWGQGTQVTVSS
VL: QTVVTQEPSLSVSPGGTVTLTCGLNSGSVTSSNYPDWYQQTPGQAPRLLIYNTNSRHSGVPSRFSGSISGNKAALTITGAQPEDEADYYCALYMGSDSVVFGGGTHLTVL
notes: it was detected with goat anti-human IgG (Fc); also called mAb 14C7; llama antibody 14C7
% of binding to wild-type peptide [1]: 0% | % of binding to wild-type peptide [2]: 0% | % of binding to wild-type peptide [3]: 17.5% | % of binding to wild-type peptide [4]: 27.5% | % of binding to wild-type peptide [5]: 0% | % of binding to wild-type peptide [6]: 0% | % of binding to wild-type peptide [7]: 1.57% | % of binding to wild-type peptide [8]: 0.65% | % of binding to wild-type peptide [9]: 62.3% | % of binding to wild-type peptide [10]: 48.3% | % of binding to wild-type peptide [11]: 1.36% | % of binding to wild-type peptide [12]: 88.3% | % of binding to wild-type peptide [13]: 35.1% | % of binding to wild-type peptide [14]: 0.89% | % of binding to wild-type peptide [15]: 15.1% | % of binding to wild-type peptide [16]: 0% | % of binding to wild-type peptide [17]: 0.74% | % of binding to wild-type peptide [18]: 64.8% | % of binding to wild-type peptide [19]: 2.6% | % of binding to wild-type peptide [20]: 0% | % of binding to wild-type peptide [21]: 0% | % of binding to wild-type peptide [22]: 0% | % of binding to wild-type peptide [23]: 118% | % of binding to wild-type peptide [24]: 17.7% | % of binding to wild-type peptide [25]: 28.1% | % of binding to wild-type peptide [26]: 11.5% | % of binding to wild-type peptide [27]: 38.8% | % of binding to wild-type peptide [28]: 0% | % of binding to wild-type peptide [29]: 0% | % of binding to wild-type peptide [30]: 69.4% | % of binding to wild-type peptide [31]: 98.5%
